From publication PMC3217976, “A Conserved GA Element in TATA-Less RNA Polymerase II Promoters”
Residue numbers refer to the chain shown, from its start.

How the values were obtained:
TBPcore [1] = molecular target: T1, TBPcore (UniProt P13393 61-240); assay: EMSA; 300 nM TBPcore, 50 ug/ml heparin; EMSA: 3 nM DNA, 300 nM TBPcore, 3 uM TFIIB, 4 mM Tris-HCl pH 8.0, 60 mM KCl, 5 mM MgCl2, 4% glycerol, 1 mM DTT, 100 ug/ml BSA, 0.1% Tween 20, 50 ug/ml heparin; conditions: protein: recombinant; label: 5'-Cy5 on coding strand; blunt
T1 sequence: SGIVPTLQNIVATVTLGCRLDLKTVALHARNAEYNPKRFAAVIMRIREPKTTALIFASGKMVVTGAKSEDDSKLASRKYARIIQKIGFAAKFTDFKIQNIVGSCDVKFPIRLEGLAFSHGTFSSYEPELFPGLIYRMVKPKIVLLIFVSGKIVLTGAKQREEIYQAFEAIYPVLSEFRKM

TBPcore;TFIIB [2] = molecular target: T2, TBPcore;TFIIB (Saccharomyces cerevisiae?;Saccharomyces …, UniProt P13393;P29055 61-240;1-345, |); assay: EMSA; 300 nM TBPcore, 3 uM TFIIB, 50 ug/ml heparin; EMSA: 3 nM DNA, 300 nM TBPcore, 3 uM TFIIB, 4 mM Tris-HCl pH 8.0, 60 mM KCl, 5 mM MgCl2, 4% glycerol, 1 mM DTT, 100 ug/ml BSA, 0.1% Tween 20, 50 ug/ml heparin; conditions: protein: recombinant;recombinant; tags: ;; copies: 1;1; label: 5'-Cy5 on coding strand; blunt
T2 sequence 1: T1 sequence
T2 sequence 2: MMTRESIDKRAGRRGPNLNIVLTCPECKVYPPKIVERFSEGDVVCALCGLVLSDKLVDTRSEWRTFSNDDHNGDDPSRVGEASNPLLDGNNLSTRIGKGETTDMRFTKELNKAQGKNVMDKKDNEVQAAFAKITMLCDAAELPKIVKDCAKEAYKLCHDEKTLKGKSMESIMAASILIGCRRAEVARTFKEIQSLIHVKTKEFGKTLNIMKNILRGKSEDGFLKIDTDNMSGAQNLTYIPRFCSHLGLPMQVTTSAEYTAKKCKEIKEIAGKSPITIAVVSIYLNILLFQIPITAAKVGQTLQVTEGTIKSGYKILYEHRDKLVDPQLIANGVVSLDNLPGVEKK

TBPcore [3] = molecular target: T1, TBPcore; assay: EMSA; not affected vs TMT1 (GAE); EMSA: 3 nM DNA, 300 nM TBPcore, 3 uM TFIIB, 4 mM Tris-HCl pH 8.0, 60 mM KCl, 5 mM MgCl2, 4% glycerol, 1 mM DTT, 100 ug/ml BSA, 0.1% Tween 20, 50 ug/ml heparin; conditions: protein: recombinant; label: 5'-Cy5 on coding strand; blunt
TBPcore;TFIIB [4] = molecular target: T2, TBPcore;TFIIB; assay: as above; conditions: protein: recombinant;recombinant; tags: ;; copies: 1;1; label: 5'-Cy5 on coding strand; blunt
TBPcore [5] = molecular target: T1, TBPcore; assay: EMSA; GAE region not sufficient for binding; EMSA: 3 nM DNA, 300 nM TBPcore, 3 uM TFIIB, 4 mM Tris-HCl pH 8.0, 60 mM KCl, 5 mM MgCl2, 4% glycerol, 1 mM DTT, 100 ug/ml BSA, 0.1% Tween 20, 50 ug/ml heparin; conditions: protein: recombinant; label: 5'-Cy5 on coding strand; blunt
TBPcore;TFIIB [6] = molecular target: T2, TBPcore;TFIIB; assay: as above; conditions: protein: recombinant;recombinant; tags: ;; copies: 1;1; label: 5'-Cy5 on coding strand; blunt
TBPcore [7] = molecular target: T1, TBPcore; assay: EMSA; not impaired; EMSA: 3 nM DNA, 300 nM TBPcore, 3 uM TFIIB, 4 mM Tris-HCl pH 8.0, 60 mM KCl, 5 mM MgCl2, 4% glycerol, 1 mM DTT, 100 ug/ml BSA, 0.1% Tween 20, 50 ug/ml heparin; conditions: protein: recombinant; label: 5'-Cy5 on coding strand; blunt
TBPcore;TFIIB [8] = molecular target: T2, TBPcore;TFIIB; assay: as above; conditions: protein: recombinant;recombinant; tags: ;; copies: 1;1; label: 5'-Cy5 on coding strand; blunt

B1: HIS4 (TATA) (dsDNA)
DNA 1: ACAGTAGTATACTGTGTATATAATAGATATGGAACGTTAT
DNA 2: ATAACGTTCCATATCTATTATATACACAGTATACTACTGT
binding result (TBPcore [1]): binds
binding result (TBPcore;TFIIB [2]): binds

B2: TMT1 (GAE) (dsDNA)
DNA 1: ATTTTCATTTTTAAAGGAAAAGGAATGTAACTAATTTAGT
DNA 2: ACTAAATTAGTTACATTCCTTTTCCTTTAAAAATGAAAAT
binding result (TBPcore [1]): binds
binding result (TBPcore;TFIIB [2]): binds

B3: TMT1 (A-12) (dsDNA)
DNA 1: B2 DNA 1 with G16A, G17A, G22A, G23A
DNA 2: B2 DNA 2 with C18T, C19T, C24T, C25T
binding result (TBPcore [3]): binds
binding result (TBPcore;TFIIB [4]): binds

B4: HIS4 (GAE) (dsDNA)
DNA 1: TAGTATACTGTGAAAGGAAAAGGAAGATATGGAACGTTAT
DNA 2: ATAACGTTCCATATCTTCCTTTTCCTTTCACAGTATACTA
binding result (TBPcore [5]): no binding
binding result (TBPcore;TFIIB [6]): no binding

B5: TMT1 (TATA) (dsDNA)
DNA 1: ATTTTCATTTTTTATATAATATGTAACTAATTTAGT
DNA 2: ACTAAATTAGTTACATATTATATAAAAAATGAAAAT
binding result (TBPcore [7]): binds
binding result (TBPcore;TFIIB [8]): binds
